Experimental data taken from patent publication US20220227866A1 (VELOSBIO, published 2022).
Values joined by “and” are separate entries in the source; they are usually repeats but may differ in a detail not shown here. Equal values may be shown once.

Assays:
human ROR1 on cells [1] = target: T1, human ROR1 on cells (human, UniProt Q01973 30-937); experiment: cell-based or functional assay
[2] = target: T2, recombinant human ROR1 extracellular domain (human, UniProt Q01973 30-406); experiment: ELISA, immobilised ROR1 ECD, construct titrated
T2 construct: Bought (Acro Biosystems cat. R01-H522Y); whole entry named; also called ROR1-ECD; immobilized ROR1
Method: A 96-well Costar-3366 plate was coated with 50 μL/well of 2 μg/mL […] (Acro Biosystems cat. #R01-H522Y) in PBS overnight at 4° C. The plate was rinsed once with PBS containing 0.05% Tween 20 (PBS-T) and blocked with 100 μL/well of 5% non-fat milk in PBS (5% M-P) for 1 h at 25° C. Antibody samples were serially diluted 2-fold using 5% M-P and were incubated for 1 h at 25° C. (50 μL/well). The plate was washed three times with PBS-T and 50 μL/well anti-human kappa, HRP conjugate (Southern Biotech cat. #2060-05) diluted 10,000-fold in 5% M-P was added for 1 h at 25° C. The plate was washed three times with PBS-T, developed with 50 μL/well 1-Step Ultra TMB-ELISA (Thermo Scientific cat. #34028). The reaction was terminated by the addition of 2 N H₂SO₄ and the A450 was determined using a Spectramax plate reader.
Next, the binding of bispecific binding molecules to ROR was characterized by ELISA using recombinantly-expressed extracellular domain of RORL. ROR was immobilized on a microtiter plate, the bispecific binding molecules were titrated, and binding was quantitated with an anti-human kappa-HRP reagent. Consistent with the cell binding data, all constructs bound ROR1 in a concentration-dependent manner (FIG. 6). Moreover, monovalent ROR1 constructs 13-15 bound less tightly than all but two of the bivalent constructs.

[3] = target: T3, soluble biotinylated human ROR1 extracellular domain (human, UniProt Q01973 30-406, biotinylated with EZ-Link Sulfo-NHS-LC-Biotin at a 1:5 molar ratio); experiment: ELISA, captured construct, biotinylated ROR1 titrated
T3 construct: Acro Biosystems cat; whole entry named; also called b-ROR1; soluble b-ROR1
Method: To measure the binding of bispecific constructs to soluble ROR1, a 96-well Costar-3366 plate was coated with 50 μL/well of 2 μg/mL goat anti-human kappa (Southern Biotech cat. #2060-01) in PBS overnight at 4° C. The plate was rinsed once with PBS-T, blocked with 100 μL/well 5% M-P for 1 h at 25° C., rinsed once with PBS-T, and 2 μg/mL of the bispecific binding molecule was added and incubated for 1 h at 25° C. The plate was washed three times with PBS-T. Biotinylated ROR1 was diluted serially, 3-fold in 5% M-P and was incubated for 1 h at 25° C. (50 μL/well). The plate was washed three times with PBS-T. To detect the binding of b-ROR1, 50 μL/well Neutravidin-HRP (Pierce cat. #31030) diluted 1:5000 in 1% BSA-PBS was added for 1 h at 25° C. The plate was washed three times with PBS-T, then developed with 50 μL/well 1-Step Ultra TMB-ELISA (Thermo Scientific cat. #34028). The reaction was terminated by the addition of 2 N H₂SO₄ and the A450 was determined using a Spectramax plate reader.
The stronger binding observed with bivalent constructs versus monovalent constructs in cell assays and ELISAs in which the antigen is immobilized is consistent with an avidity effect. To determine if this was the case, binding to soluble monomeric ROR1 was assessed by immobilizing the bispecific binding molecules on a microtiter plate coated with goat anti-human kappa antibody and titrating biotinylated RORL. All bispecific binding molecules were active in this format (FIG. 7), and in most cases, there were no notable differences between monovalent and bivalent constructs.

[4] = target: T4, human CD3 on Jurkat cells (human, UniProt P09693 23-182; P04234 22-171; P07766 23-207); experiment: flow cytometry on Jurkat cells (1 ug/mL construct on ice, washed, then 37 C)
T4 construct: GenBank NP_000064.1, NP_000723.1, NP_000724.1
Method: (§1) To quantitate CD3 binding, 2.5E5 Jurkat cells were used for each condition. A 2× stock of the cells was made by resuspending the cells to 5E6/mL by placing in 50 μL of PBS with 2% FBS. Next, the cells were diluted with an equal volume of 2× stock of the test bispecific binding molecule. The cells and antibody were co-incubated on ice for 20 min. The cells were then washed 3 times with 300 μL of FACS buffer and were resuspended in 100 μL of goat anti-human Fc-PE conjugate antibody (Invitrogen cat. #12499882) at 1:500 dilution and incubated on ice with reduced light for 20 min. The cells were then washed 3 times with 300 μL of FACS buffer and fixed with 2% paraformaldehyde for 10 min at 25° C. The cells were washed 2 times with 300 μL of FACS buffer and analyzed on a Miltenyi MACSQuant Analyzer.
To quantitate internalization of the bispecific binding molecules, 2.5E5 Jurkat cells were co-incubated with 1 μg/mL of the bispecific binding molecule on ice for 20 min. The cells were then washed 3 times 300 μL with ice-cold FACS buffer and were resuspended in culture media and incubated at 37° C. At various times, cells were removed, washed with 300 μL ice-cold FACS buffer and processed as described above.

[5] = target: T4, human CD3 on Jurkat cells; experiment: flow cytometry on Jurkat cells
Method: as §1

human ROR1 on cells [6] = target: T1, human ROR1 on cells; experiment: flow cytometry on ROR1-transfected MEC cells after 24 h incubation with the construct
human ROR1 on cells [7] = target: T1, human ROR1 on cells; experiment: flow cytometry on JeKo-1 cells
Method: ROR1 binding was quantitated using both ROR1-transfected MEC cells and JeKo-1 cells. For each condition, 2.5E5 cells were used. The cells were placed in 50 μL of PBS with 2% FBS. Next, the cells were diluted with an equal volume of 2× stock of the test bispecific binding molecule. The cells and antibody were co-incubated on ice for 20 min. The cells were then washed 3 times with 300 μL of FACS buffer and were resuspended in 100 μL of anti-human Fc-PE conjugate antibody (Invitrogen cat. #12499882) and incubated on ice with reduced light for 20 min. Subsequently, the cells were washed 3 times with 300 μL of FACS buffer and fixed with 2% paraformaldehyde for 10 min at 25° C. The cells then were washed 2 times with 300 μL of FACS buffer and analyzed on a Miltenyi MACSQuant Analyzer.
The influence of ROR expression levels on binding of the bispecific constructs was assessed by flow cytometry using JeKo-1 cells. JeKo-1 cells express lower levels of ROR (˜13,000 copies/cell) than the ROR1-transfected MEC cells (˜56,000 copies/cell). All constructs bound JeKo-1 cells (FIG. 5). […] Specifically, monovalent ROR1 constructs generally bound more weakly than the bivalent constructs (FIG. 5, Panel A, compare constructs 14 and 15 with other constructs; FIG. 5, Panel C, compare constructs 15-17 with other constructs).

T2 sequence (Q01973 30-406 limits assumed): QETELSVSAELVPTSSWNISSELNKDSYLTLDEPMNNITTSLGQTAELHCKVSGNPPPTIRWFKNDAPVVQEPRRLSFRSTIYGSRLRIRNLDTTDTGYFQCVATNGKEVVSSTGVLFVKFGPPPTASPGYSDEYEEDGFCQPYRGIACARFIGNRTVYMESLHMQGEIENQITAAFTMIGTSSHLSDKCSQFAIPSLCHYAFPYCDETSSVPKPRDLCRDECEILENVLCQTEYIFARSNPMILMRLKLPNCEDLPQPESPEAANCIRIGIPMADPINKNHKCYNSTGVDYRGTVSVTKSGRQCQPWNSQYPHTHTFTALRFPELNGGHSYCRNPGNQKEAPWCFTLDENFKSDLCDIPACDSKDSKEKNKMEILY
T3 sequence (Q01973 30-406 limits assumed): as above
T4 sequence (P09693 23-182 limits assumed, chain 1 of 3): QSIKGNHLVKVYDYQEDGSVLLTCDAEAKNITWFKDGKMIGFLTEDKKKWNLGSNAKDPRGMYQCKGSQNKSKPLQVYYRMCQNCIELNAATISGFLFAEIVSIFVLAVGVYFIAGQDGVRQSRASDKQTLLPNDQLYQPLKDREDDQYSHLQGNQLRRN
T4 sequence (P04234 22-171 limits assumed, chain 2 of 3): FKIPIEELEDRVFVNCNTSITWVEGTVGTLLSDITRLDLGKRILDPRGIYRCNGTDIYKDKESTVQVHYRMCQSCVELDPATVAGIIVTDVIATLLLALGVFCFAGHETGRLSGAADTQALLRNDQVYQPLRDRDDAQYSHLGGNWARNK
T4 sequence (P07766 23-207 limits assumed, chain 3 of 3): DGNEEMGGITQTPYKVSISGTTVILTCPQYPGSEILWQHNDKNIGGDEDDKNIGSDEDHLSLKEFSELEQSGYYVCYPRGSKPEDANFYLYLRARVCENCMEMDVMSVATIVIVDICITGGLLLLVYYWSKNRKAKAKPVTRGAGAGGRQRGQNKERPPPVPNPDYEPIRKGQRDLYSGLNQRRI
T1 sequence (Q01973 30-937 limits assumed): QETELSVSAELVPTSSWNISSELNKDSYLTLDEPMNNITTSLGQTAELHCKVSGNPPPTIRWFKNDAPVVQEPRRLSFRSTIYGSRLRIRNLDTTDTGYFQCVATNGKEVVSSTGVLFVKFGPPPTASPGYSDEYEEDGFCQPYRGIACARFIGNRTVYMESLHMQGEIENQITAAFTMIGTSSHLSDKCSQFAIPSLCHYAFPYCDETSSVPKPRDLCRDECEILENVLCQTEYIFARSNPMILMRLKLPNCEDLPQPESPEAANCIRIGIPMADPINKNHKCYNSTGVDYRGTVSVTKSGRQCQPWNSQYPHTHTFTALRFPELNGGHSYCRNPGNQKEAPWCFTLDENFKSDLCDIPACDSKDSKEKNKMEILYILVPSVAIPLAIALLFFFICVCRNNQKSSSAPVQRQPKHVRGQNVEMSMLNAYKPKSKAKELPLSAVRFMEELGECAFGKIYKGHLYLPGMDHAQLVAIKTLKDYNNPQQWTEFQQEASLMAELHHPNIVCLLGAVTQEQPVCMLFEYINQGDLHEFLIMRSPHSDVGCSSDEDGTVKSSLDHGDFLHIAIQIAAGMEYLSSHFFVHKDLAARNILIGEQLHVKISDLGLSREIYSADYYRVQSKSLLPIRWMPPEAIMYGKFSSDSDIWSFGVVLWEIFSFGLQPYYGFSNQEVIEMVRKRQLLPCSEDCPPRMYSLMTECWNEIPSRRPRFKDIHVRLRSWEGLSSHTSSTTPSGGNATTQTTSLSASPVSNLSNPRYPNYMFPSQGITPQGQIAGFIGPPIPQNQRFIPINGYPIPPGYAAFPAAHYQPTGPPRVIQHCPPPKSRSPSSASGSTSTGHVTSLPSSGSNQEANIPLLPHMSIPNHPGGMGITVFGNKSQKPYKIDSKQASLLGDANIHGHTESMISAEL

Binder	EC50, LDH release, A549 (human ROR1 on cells [1])	EC50, LDH release, A4573 (human ROR1 on cells [1])	EC50, LDH release, JeKo-1 (human ROR1 on cells [1])	EC50, LDH release, Mino (human ROR1 on cells [1])	EC50, LDH release, Saos-2 (human ROR1 on cells [1])	Max. LDH Release, Mino (human ROR1 on cells [1]) [%]	Kd [2] [nM]	Kd [3] [nM]	binding result [4]	EC50, LDH release, ROR1-transfected MEC (human ROR1 on cells [1])	Max. LDH Release, ROR1-transfected MEC (human ROR1 on cells [1]) [%]	binding result [5]	EC50 (read off the curve) (human ROR1 on cells [6]) [µg/mL]	EC50 (read off the curve) (human ROR1 on cells [7]) [µg/mL]
Bispecific construct 1 (bispecific antibody, human IgG1, kappa, ROR1 arm Ab1; CD3 valency 2, ROR1 valency 2) heavy: not shown light: DIVMTQTPLSLPVTPGEPASISCRASKSISKYLAWYQQKPGQAPRLLIYSGSTLQSGIPPRFSGSGYGTDFTLTINNIESEDAAYYFCQQHDESPYTFGEGTKVEIKRTVAAPSVFIFPPSDEQLKSGTASVVCLLNNFYPREAKVQWKVDNALQSGNSQESVTEQDSKDSTYSLSSTLTLSKADYEKHKVYACEVTHQGLSSPVTKSFNRGEC	–	–	–	–	–	–	0.2	0.193	–	11 ng/mL and 55 pM	42	binds	~0.003	–
Bispecific construct 2 (bispecific antibody, human IgG1, kappa, anti-CD3 scFv Ab9 (OKT3-based); ROR1 arm Ab1; valency 2/2) heavy: not shown light: DIVMTQTPLSLPVTPGEPASISCRASKSISKYLAWYQQKPGQAPRLLIYSGSTLQSGIPPRFSGSGYGTDFTLTINNIESEDAAYYFCQQHDESPYTFGEGTKVEIKRTVAAPSVFIFPPSDEQLKSGTASVVCLLNNFYPREAKVQWKVDNALQSGNSQESVTEQDSKDSTYSLSSTLTLSKADYEKHKVYACEVTHQGLSSPVTKSFNRGEC	–	–	–	–	–	–	0.041	0.129	binds	5 ng/mL and 25 pM	50	–	–	~0.02

Further lines, results first:

EC50, LDH release, A549 (human ROR1 on cells [1])	EC50, LDH release, A4573 (human ROR1 on cells [1])	EC50, LDH release, JeKo-1 (human ROR1 on cells [1])	EC50, LDH release, Mino (human ROR1 on cells [1])	EC50, LDH release, Saos-2 (human ROR1 on cells [1])	Max. LDH Release, Mino (human ROR1 on cells [1]) [%]	Kd [2] [nM]	Kd [3] [nM]	binding result [4]	EC50, LDH release, ROR1-transfected MEC (human ROR1 on cells [1])	Max. LDH Release, ROR1-transfected MEC (human ROR1 on cells [1]) [%]	binding result [5]	EC50 (read off the curve) (human ROR1 on cells [6]) [µg/mL]	EC50 (read off the curve) (human ROR1 on cells [7]) [µg/mL]	Binder
3.39 ng/mL and 17.1 pM	1.2 ng/mL and 6.1 pM	1.62 ng/mL and 8.1 pM	0.95 ng/mL and 4.8 pM	2.92 ng/mL and 14.7 pM	53	0.098	0.151	binds	–	–	–	–	–	Bispecific construct 8 (bispecific antibody, human IgG1, kappa, anti-CD3 scFv Ab9 (OKT3-based); ROR1 arm Ab1; valency 2/2) heavy: not shown light: DIVMTQTPLSLPVTPGEPASISCRASKSISKYLAWYQQKPGQAPRLLIYSGSTLQSGIPPRFSGSGYGTDFTLTINNIESEDAAYYFCQQHDESPYTFGEGTKVEIKRTVAAPSVFIFPPSDEQLKSGTASVVCLLNNFYPREAKVQWKVDNALQSGNSQESVTEQDSKDSTYSLSSTLTLSKADYEKHKVYACEVTHQGLSSPVTKSFNRGECGGGGSGGGGSQVQLVQSGAEVKKPGASVKVSCKASGYTFTRYTMHWVRQAPGQGLEWMGYINPSRGYTNYNQKFKDRVTLTTDKSSSTAYMELSSLRSEDTAVYYCARYYDDHYSLDYWGQGTLVTVSSGGGGSGGGGSGGGGSGGGGSDIQMTQSPSSLSASVGDRVTITCSASSSVSYMNWYQQKPGKAPKRLIYDTSKLASGVPSRFSGSGSGTDFTLTISSLQPEDFATYYCQQWSSNPFTFGQGTKLEIK
–	–	–	–	–	–	0.085	0.105	–	–	–	binds	–	~0.02	Bispecific construct 4 (bispecific antibody, human IgG1, kappa, disulfide-stabilized anti-CD3 scFv Ab8; ROR1 arm Ab1; valency 2/2) heavy: not shown light: DIVMTQTPLSLPVTPGEPASISCRASKSISKYLAWYQQKPGQAPRLLIYSGSTLQSGIPPRFSGSGYGTDFTLTINNIESEDAAYYFCQQHDESPYTFGEGTKVEIKRTVAAPSVFIFPPSDEQLKSGTASVVCLLNNFYPREAKVQWKVDNALQSGNSQESVTEQDSKDSTYSLSSTLTLSKADYEKHKVYACEVTHQGLSSPVTKSFNRGEC
–	–	–	–	–	–	0.055	0.07	–	–	–	binds	–	~0.02	Bispecific construct 5 (bispecific antibody, human IgG1, kappa, disulfide-stabilized anti-CD3 scFv Ab9; ROR1 arm Ab1; valency 2/2) heavy: not shown light: DIVMTQTPLSLPVTPGEPASISCRASKSISKYLAWYQQKPGQAPRLLIYSGSTLQSGIPPRFSGSGYGTDFTLTINNIESEDAAYYFCQQHDESPYTFGEGTKVEIKRTVAAPSVFIFPPSDEQLKSGTASVVCLLNNFYPREAKVQWKVDNALQSGNSQESVTEQDSKDSTYSLSSTLTLSKADYEKHKVYACEVTHQGLSSPVTKSFNRGEC
–	–	–	0.97 ng/mL and 4.9 pM	–	50	0.05	0.118	–	1.3 ng/mL and 6.5 pM	55	binds	~0.005	–	Bispecific construct 7 (bispecific antibody, human IgG1, kappa, ROR1 arm Ab1; valency 2/2) heavy: not shown light: DIVMTQTPLSLPVTPGEPASISCRASKSISKYLAWYQQKPGQAPRLLIYSGSTLQSGIPPRFSGSGYGTDFTLTINNIESEDAAYYFCQQHDESPYTFGEGTKVEIKRTVAAPSVFIFPPSDEQLKSGTASVVCLLNNFYPREAKVQWKVDNALQSGNSQESVTEQDSKDSTYSLSSTLTLSKADYEKHKVYACEVTHQGLSSPVTKSFNRGECGGGGSGGGGSQVQLVQSGGGVVQPGRSLRLSCKASGYTFTRYTMHWVRQAPGKGLEWIGYINPSRGYTNYNQKVKDRFTISRDNSKNTLYLQMDSLRAEDTAVYYCARYYDDHYSLDYWGQGTTVTVSSGGGGSGGGGSGGGGSGGGGSDIQMTQSPSSLSASVGDRVTITCSASSSVSYMNWYQQKPGKAPKRWIYDTSKLASGVPSRFSGSGSGTDFTFTISSLQPEDIATYYCQQWSSNPFTFGQGTKLEIK
